This assay concerns the target Clostridioides difficile transferase B component, CDTb_(45-876), activated with trypsin (Clostridioides difficile) (UniProt O32739). Briefly: SDS-PAGE of SDS-resistant oligomers.

With “Clostridioides difficile transferase B component, CDTb_(45-876), activated with trypsin (from UniProt O32739 45-876) (natural protein)”, the fold enhancement of oligomerization with 2.5 M ethanol over water is 7.5 fold.

Source of the values: PMC12303382.
